Laboratory results as given in patent US20050282743A1, “Molecular interactions in cells” (Arbor Vita Corporation, priority 2001, published 2005).
Ends that are not written are not given here. * marks the point of attachment. Biotin = O=C1N[C@H]2[C@H](CS[C@H]2CCCCC(=O)*)N1

Key:
Assay in all cases: G' assay (10 uM PL peptide), results of TABLE 7 and TABLE 12
Assay type in all cases: binding
[1] = biological target: T1, PDZ protein (GST-PDZ fusion) (Homo sapiens, UniProt Q13796); details: PDZ hAPXL, PDZ Domain 1
T1 construct: made in house; host or cells: E. coli (DH5alpha, BL21 or JM109)
How it was run: (§1)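 Same steps as the G-zero format, apart from a peptide concentration of 10 uM in place of 20 uM in step 2. Amino-terminally biotinylated PL peptides bind GST-PDZ fusions, and retained peptide is quantified by 450 nm absorbance.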

[2] = biological target: T2, PDZ protein (GST-PDZ fusion) (Homo sapiens, UniProt Q8TEW0); details: PDZ PAR3, PDZ Domain 3
T2 construct: made in house; host or cells: E. coli (DH5alpha, BL21 or JM109)
How it was run: as §1

[3] = biological target: T3, PDZ protein (GST-PDZ fusion) (Homo sapiens, UniProt Q07157)
T3 construct: made in house; host or cells: E. coli (DH5alpha, BL21 or JM109)
How it was run: as §1

[4] = biological target: T4, PDZ protein (GST-PDZ fusion) (Homo sapiens, UniProt Q9UDY2); details: PDZ ZO-2, PDZ Domain 2
T4 construct: made in house; host or cells: E. coli (DH5alpha, BL21 or JM109)
T4 sequence (Q9UDY2 1-1190): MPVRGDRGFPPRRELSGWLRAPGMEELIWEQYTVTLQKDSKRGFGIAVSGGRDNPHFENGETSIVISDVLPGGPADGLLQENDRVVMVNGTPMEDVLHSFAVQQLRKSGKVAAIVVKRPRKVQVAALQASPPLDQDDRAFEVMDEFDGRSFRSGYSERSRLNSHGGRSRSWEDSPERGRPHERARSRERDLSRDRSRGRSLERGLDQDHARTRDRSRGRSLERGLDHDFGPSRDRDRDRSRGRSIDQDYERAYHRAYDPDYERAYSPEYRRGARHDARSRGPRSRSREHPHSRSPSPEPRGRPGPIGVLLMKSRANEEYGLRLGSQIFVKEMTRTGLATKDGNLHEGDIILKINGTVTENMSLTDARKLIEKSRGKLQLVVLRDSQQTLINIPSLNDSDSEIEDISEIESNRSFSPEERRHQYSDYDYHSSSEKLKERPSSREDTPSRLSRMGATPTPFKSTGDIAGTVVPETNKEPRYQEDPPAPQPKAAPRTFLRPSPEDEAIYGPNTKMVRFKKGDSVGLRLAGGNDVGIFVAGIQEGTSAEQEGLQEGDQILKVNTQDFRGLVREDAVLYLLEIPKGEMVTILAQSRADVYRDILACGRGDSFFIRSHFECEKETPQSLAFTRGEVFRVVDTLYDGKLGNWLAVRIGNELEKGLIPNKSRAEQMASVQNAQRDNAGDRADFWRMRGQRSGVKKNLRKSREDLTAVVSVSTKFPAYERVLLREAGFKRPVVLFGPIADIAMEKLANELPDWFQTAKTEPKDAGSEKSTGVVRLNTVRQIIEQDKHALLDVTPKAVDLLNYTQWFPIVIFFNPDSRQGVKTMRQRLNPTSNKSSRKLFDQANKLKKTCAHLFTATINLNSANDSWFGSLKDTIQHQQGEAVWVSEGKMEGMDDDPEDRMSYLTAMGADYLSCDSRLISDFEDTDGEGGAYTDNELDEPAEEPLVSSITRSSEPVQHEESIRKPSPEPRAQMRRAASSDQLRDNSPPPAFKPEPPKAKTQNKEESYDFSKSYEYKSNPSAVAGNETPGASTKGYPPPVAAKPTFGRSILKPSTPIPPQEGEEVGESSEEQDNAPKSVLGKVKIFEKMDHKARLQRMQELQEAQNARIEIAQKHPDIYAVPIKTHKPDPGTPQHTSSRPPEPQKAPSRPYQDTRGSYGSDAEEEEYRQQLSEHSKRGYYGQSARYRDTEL
How it was run: as §1

[5] = tested on: PDZ protein (GST-PDZ fusion)
How it was run: as §1

[6] = biological target: T5, PDZ protein (GST-PDZ fusion) (Homo sapiens, UniProt O15018); details: PDZ AIPC, PDZ Domain 1
T5 construct: made in house; host or cells: E. coli (DH5alpha, BL21 or JM109)
How it was run: as §1

[7] = biological target: T6, PDZ protein (GST-PDZ fusion) (Homo sapiens, UniProt Q12923); details: PDZ PTPL-1, PDZ Domain 4
T6 construct: made in house; host or cells: E. coli (DH5alpha, BL21 or JM109)
How it was run: as §1

[8] = biological target: T7, PDZ protein (GST-PDZ fusion) (Homo sapiens, UniProt Q6P0Q8)
T7 construct: made in house; host or cells: E. coli (DH5alpha, BL21 or JM109)
How it was run: as §1

[9] = biological target: T8, PDZ protein (GST-PDZ fusion) (Homo sapiens, UniProt Q02410)
T8 construct: made in house; host or cells: E. coli (DH5alpha, BL21 or JM109)
T8 sequence (Q02410 1-837): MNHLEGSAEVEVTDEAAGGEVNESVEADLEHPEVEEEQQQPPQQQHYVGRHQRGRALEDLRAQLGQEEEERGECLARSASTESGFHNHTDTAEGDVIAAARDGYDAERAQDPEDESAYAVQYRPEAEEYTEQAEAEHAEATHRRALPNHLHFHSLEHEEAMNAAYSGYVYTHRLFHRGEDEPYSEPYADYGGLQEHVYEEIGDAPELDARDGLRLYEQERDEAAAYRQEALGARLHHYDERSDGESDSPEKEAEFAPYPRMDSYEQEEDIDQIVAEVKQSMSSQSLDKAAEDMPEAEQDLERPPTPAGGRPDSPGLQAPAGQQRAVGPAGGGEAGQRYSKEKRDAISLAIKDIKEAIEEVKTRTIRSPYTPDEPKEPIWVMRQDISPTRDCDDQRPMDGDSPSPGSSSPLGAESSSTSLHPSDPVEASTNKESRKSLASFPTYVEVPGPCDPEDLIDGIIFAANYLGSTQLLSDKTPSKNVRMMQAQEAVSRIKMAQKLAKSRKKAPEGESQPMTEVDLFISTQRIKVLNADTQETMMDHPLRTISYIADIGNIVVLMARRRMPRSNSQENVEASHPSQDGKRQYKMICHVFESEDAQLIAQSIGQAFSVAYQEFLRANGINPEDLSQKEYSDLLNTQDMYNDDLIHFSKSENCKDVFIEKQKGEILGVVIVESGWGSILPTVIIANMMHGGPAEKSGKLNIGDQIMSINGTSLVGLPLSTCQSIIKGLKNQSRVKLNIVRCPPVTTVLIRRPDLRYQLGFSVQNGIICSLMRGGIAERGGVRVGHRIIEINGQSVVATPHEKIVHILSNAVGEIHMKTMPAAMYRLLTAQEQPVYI
How it was run: as §1

[10] = biological target: T9, PDZ protein (GST-PDZ fusion) (Homo sapiens, UniProt Q12959); details: PDZ DLG1, PDZ Domain 1, 2
T9 construct: made in house; host or cells: E. coli (DH5alpha, BL21 or JM109)
How it was run: as §1

[11] = biological target: T10, PDZ protein (GST-PDZ fusion) (Homo sapiens, UniProt Q5T2W1); details: PDZ PDZK1, PDZ Domain 2, 3, 4
T10 construct: made in house; host or cells: E. coli (DH5alpha, BL21 or JM109)
T10 sequence (Q5T2W1 1-519): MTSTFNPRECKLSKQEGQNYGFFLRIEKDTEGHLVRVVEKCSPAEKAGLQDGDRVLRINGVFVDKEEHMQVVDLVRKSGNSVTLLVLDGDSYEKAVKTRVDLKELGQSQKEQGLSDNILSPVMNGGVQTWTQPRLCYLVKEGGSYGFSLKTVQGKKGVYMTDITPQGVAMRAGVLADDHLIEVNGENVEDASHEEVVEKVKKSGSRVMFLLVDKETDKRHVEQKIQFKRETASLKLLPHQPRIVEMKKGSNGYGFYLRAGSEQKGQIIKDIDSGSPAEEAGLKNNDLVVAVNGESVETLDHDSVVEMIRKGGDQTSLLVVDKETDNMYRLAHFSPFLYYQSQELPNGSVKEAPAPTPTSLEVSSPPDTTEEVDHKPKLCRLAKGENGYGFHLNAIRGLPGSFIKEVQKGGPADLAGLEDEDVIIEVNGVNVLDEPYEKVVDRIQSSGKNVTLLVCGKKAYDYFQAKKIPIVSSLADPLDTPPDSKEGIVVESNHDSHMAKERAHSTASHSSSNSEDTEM
How it was run: as §1

[12] = biological target: T11, PDZ protein (GST-PDZ fusion) (Homo sapiens, UniProt Q9Y2H9); details: PDZ KIAA0973, PDZ Domain 1
T11 construct: made in house; host or cells: E. coli (DH5alpha, BL21 or JM109)
How it was run: as §1

[13] = biological target: T12, PDZ protein (GST-PDZ fusion) (Homo sapiens, UniProt Q9C0E4); details: PDZ KIAA1719, PDZ Domain 6
T12 construct: made in house; host or cells: E. coli (DH5alpha, BL21 or JM109)
How it was run: as §1

[14] = biological target: T13, PDZ protein (GST-PDZ fusion) (Homo sapiens, UniProt Q9P202); details: PDZ KIAA1526, PDZ Domain 1
T13 construct: made in house; host or cells: E. coli (DH5alpha, BL21 or JM109)
T13 sequence (Q9P202 1-907): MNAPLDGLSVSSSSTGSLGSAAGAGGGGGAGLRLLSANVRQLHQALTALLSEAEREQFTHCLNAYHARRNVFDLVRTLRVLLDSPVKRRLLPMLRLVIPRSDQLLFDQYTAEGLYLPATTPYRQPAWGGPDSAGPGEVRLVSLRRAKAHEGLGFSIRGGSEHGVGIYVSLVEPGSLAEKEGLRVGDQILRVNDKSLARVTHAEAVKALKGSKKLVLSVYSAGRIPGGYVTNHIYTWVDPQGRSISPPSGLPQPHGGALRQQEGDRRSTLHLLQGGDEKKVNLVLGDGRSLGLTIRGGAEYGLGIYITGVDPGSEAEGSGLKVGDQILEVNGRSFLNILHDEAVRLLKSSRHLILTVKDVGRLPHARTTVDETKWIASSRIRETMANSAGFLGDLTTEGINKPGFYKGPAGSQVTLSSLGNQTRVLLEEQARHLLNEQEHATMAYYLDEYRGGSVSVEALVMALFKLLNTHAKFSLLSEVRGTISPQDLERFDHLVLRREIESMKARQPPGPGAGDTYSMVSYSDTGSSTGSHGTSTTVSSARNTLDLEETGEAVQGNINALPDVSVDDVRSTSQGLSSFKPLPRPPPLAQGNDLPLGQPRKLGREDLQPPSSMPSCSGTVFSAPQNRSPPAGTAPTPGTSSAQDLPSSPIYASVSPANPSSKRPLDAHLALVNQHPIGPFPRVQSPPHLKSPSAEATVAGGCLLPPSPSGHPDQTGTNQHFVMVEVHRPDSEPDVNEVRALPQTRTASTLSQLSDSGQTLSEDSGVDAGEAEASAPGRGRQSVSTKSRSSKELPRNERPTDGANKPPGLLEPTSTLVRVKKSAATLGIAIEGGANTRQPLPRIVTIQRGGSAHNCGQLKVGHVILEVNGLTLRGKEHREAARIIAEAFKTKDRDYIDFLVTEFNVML
How it was run: as §1

[15] = biological target: T14, PDZ protein (GST-PDZ fusion) (Homo sapiens, UniProt O75970); details: PDZ MUPP-1, PDZ Domain 11
T14 construct: made in house; host or cells: E. coli (DH5alpha, BL21 or JM109)
How it was run: as §1

[16] = biological target: T15, PDZ protein (GST-PDZ fusion) (Homo sapiens, UniProt Q9NZN5); details: PDZ KIAA0382, PDZ Domain 1
T15 construct: made in house; host or cells: E. coli (DH5alpha, BL21 or JM109)
How it was run: as §1

T7 sequence (Q6P0Q8 whole entry, the tested form may be a part): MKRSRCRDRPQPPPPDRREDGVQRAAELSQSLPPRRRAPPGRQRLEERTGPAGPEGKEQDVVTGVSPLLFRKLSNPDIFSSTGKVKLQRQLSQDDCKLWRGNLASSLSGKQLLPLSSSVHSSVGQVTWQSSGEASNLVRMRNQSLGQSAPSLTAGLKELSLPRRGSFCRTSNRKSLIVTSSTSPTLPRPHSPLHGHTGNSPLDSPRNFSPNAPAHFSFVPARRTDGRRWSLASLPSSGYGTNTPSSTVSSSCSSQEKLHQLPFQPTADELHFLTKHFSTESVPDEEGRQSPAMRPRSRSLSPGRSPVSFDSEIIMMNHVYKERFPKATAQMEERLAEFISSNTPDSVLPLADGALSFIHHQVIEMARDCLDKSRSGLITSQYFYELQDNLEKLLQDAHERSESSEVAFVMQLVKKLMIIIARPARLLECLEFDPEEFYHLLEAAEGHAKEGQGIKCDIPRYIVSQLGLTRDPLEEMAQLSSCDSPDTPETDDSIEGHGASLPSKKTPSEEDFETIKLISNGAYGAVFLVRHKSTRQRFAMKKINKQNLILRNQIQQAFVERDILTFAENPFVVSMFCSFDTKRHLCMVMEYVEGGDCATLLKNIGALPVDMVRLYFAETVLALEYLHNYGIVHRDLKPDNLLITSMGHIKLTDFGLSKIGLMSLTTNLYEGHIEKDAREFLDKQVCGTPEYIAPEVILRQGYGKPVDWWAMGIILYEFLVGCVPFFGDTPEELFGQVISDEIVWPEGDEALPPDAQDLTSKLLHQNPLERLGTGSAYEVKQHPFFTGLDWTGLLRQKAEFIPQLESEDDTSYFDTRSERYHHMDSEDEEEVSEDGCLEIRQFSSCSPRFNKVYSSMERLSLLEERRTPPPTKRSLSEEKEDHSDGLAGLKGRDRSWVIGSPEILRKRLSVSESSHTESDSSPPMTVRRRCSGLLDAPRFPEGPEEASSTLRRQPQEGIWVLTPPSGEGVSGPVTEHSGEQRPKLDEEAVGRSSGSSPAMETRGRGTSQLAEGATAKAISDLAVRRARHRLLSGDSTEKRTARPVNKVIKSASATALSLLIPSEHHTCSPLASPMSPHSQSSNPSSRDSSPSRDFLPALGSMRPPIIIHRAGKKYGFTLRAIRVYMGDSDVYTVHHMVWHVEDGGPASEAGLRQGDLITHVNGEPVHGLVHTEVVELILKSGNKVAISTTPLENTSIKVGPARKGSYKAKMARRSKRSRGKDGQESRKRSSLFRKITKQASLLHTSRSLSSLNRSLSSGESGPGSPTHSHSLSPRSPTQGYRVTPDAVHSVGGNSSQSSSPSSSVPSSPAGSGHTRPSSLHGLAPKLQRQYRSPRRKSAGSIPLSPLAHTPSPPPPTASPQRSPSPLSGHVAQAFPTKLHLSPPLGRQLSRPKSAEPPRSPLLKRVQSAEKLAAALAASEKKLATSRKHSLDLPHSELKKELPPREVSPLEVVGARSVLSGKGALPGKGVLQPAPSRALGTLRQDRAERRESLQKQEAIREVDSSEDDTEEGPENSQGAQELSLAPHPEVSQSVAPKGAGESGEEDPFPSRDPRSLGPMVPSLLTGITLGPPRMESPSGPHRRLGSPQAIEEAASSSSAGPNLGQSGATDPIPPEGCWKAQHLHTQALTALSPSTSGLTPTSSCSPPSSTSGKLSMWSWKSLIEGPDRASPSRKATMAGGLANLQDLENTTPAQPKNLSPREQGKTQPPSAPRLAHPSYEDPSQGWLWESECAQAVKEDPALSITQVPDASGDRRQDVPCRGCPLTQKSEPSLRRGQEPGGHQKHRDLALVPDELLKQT
T2 sequence (Q8TEW0 whole entry, the tested form may be a part): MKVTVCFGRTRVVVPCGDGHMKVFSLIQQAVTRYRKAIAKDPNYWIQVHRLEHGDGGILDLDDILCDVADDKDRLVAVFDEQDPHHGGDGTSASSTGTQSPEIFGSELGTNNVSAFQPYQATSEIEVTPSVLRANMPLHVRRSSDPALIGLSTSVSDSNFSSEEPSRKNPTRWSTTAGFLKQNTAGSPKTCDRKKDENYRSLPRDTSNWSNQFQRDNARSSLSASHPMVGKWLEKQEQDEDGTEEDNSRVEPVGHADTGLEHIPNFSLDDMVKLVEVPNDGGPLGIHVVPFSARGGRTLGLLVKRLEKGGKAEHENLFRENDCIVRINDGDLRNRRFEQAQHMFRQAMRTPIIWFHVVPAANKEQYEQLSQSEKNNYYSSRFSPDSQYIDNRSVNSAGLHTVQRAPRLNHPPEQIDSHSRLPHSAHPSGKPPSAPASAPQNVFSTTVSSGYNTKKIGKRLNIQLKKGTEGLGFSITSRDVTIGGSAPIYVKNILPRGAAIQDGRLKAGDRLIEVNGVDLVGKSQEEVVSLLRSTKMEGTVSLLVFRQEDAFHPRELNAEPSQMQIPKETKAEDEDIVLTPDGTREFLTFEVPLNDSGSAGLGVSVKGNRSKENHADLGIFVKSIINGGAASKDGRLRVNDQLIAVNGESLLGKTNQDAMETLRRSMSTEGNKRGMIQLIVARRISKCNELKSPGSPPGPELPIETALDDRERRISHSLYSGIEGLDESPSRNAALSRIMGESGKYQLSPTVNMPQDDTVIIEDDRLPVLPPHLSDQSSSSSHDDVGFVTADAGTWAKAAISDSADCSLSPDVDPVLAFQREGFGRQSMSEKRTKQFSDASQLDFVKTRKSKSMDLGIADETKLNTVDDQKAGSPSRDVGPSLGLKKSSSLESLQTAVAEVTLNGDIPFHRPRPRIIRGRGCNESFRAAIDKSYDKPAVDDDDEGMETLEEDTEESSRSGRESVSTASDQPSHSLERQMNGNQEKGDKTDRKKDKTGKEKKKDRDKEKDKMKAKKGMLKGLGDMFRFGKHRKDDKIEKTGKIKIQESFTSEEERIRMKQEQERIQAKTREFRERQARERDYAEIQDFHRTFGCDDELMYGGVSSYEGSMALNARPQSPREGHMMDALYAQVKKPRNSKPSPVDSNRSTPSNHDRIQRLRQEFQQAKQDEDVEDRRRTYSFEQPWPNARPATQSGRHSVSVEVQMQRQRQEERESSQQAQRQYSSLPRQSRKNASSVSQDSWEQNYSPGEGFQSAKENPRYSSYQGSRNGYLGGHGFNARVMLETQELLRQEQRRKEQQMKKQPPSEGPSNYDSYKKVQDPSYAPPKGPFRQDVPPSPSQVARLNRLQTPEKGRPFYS
T3 sequence (Q07157 whole entry, the tested form may be a part): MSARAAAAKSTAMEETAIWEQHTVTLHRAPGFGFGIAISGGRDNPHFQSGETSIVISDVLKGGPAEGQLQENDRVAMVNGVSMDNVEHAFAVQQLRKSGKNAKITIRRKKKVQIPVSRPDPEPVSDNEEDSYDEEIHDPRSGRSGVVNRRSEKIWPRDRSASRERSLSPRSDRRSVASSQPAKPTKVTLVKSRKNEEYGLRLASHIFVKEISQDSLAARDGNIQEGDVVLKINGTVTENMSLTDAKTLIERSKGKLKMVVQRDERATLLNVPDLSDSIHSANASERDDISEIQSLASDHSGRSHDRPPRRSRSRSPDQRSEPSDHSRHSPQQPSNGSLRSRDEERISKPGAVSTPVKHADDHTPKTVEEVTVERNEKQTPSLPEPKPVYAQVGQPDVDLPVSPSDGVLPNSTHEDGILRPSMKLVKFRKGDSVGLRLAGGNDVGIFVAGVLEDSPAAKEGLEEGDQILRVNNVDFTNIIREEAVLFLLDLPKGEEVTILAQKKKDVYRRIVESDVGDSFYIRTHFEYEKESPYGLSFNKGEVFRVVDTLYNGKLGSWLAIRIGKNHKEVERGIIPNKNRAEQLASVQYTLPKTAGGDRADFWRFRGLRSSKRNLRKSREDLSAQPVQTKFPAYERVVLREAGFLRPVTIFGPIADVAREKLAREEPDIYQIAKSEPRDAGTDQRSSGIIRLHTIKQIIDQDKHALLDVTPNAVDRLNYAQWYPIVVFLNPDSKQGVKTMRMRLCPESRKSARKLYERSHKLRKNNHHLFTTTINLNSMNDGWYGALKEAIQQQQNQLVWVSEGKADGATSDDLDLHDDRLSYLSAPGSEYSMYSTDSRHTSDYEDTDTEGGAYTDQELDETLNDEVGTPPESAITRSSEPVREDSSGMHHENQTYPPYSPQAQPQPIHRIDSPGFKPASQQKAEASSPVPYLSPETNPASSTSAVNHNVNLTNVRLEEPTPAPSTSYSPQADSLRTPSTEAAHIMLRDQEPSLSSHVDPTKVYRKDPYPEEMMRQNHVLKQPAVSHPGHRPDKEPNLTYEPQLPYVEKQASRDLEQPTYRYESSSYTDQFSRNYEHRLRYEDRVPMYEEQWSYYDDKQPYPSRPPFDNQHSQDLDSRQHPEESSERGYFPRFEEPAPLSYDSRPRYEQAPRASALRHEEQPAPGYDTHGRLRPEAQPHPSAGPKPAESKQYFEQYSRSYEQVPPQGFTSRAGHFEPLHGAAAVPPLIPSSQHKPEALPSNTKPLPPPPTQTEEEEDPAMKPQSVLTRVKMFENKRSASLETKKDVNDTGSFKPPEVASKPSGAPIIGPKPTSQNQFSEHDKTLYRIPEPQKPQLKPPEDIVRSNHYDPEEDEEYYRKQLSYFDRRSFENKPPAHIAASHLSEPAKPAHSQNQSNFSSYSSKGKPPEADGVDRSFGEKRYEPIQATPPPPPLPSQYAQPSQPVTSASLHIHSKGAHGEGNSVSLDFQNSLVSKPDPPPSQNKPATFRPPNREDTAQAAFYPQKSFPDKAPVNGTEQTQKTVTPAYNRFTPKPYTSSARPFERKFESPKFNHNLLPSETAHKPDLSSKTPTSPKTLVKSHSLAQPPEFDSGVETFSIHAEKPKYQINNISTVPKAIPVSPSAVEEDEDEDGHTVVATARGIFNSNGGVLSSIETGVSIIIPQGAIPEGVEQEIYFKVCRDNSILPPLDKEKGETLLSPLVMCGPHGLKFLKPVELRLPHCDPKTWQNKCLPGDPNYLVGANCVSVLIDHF

Substance: PTR2_HUMAN (Biotin-RPMESNPDTEGAQGETEDVL)
- Classification [1]: 1 (A450 nm 0-1)
- Classification [2]: 1 (A450 nm 0-1)

Substance: PSSRASSRASSRPRPDDLEI (Biotin-PSSRASSRASSRPRPDDLEI) [CX43]
- Classification ([3]; PDZ ZO-1, PDZ Domain 2): 2 (A450 nm 1-2)
- Classification [4]: 1 (A450 nm 0-1)
- PDZ proteins bound by the PL (TABLE 7) ([5]; as cited in the text from TABLE 7): ZO-2 and ZO-1

Substance: LLNVLQRQELGDGLDDEIAV (Biotin-LLNVLQRQELGDGLDDEIAV)
- Classification [6]: 1 (A450 nm 0-1)
- Classification [7]: 1 (A450 nm 0-1)
- Classification [1]: 1 (A450 nm 0-1)
- Classification ([8]; PDZ KIAA0807(S), PDZ Domain 1): 1 (A450 nm 0-1)
- Classification ([8]; PDZ KIAA807, PDZ Domain not given): 1 (A450 nm 0-1)
- Classification [2]: 1 (A450 nm 0-1)

Substance: SSR4_HUMAN (EALQPEPGRKRIPLTRTTTF)
- Classification ([9]; PDZ Mint 1, PDZ Domain 1, 2): 1 (A450 nm 0-1)
- Classification [10]: 1 (A450 nm 0-1)
- Classification [11]: 1 (A450 nm 0-1)
- Classification ([8]; PDZ KIAA807): 1 (A450 nm 0-1)
- Classification ([5]; PDZ BAI-1, PDZ Domain 4): 1 (A450 nm 0-1)
- Classification ([5]; PDZ BAI-1, PDZ Domain 5): 1 (A450 nm 0-1)

Substance: NSYVRDDAIFIKAIVDLTGL (Biotin-NSYVRDDAIFIKAIVDLTGL) [TRAF2]
- Classification ([8]; PDZ KIAA807): 2 (A450 nm 1-2)
- Classification ([8]; PDZ KIAA0807(S), PDZ Domain 1): 4 (A450 nm 3-4)
- Classification [12]: 1 (A450 nm 0-1)

Substance: QGDPALQDAGDSSRKEYFI (Biotin-QGDPALQDAGDSSRKEYFI) [Glycophorin C]
- Classification [2]: 2 (A450 nm 1-2)
- Classification [13]: 1 (A450 nm 0-1)

Substance: TEGNESSEATSPVNAIYSLA (Biotin-TEGNESSEATSPVNAIYSLA) [neurofascin (chicken)]
- Classification ([3]; PDZ ZO-1, PDZ Domain 1): 1 (A450 nm 0-1)
- Classification ([3]; PDZ ZO-1, PDZ Domain 2): 1 (A450 nm 0-1)
- Classification [14]: 1 (A450 nm 0-1)
- Classification [4]: 1 (A450 nm 0-1)

Substance: RIAYSLLGLKDQVNTVGIPI (Biotin-RIAYSLLGLKDQVNTVGIPI) [ephrin A2]
- Classification [15]: 1 (A450 nm 0-1)
- Classification ([9]; PDZ Mint 1, PDZ Domain 2): 1 (A450 nm 0-1)
- Classification [13]: 1 (A450 nm 0-1)
- Classification [16]: 1 (A450 nm 0-1)
